According to patent US20250296971A1, “GASTRIC INHIBITORY PEPTIDE RECEPTOR LIGANDS” (priority 2021, published 2025):
*1 amine or outer side, *2 acyl side, *3 side chain or, on linkers, in order; H or OH if unused. Bridges are numbered along the chain shown (N, C = ends). Primed or numbered codes have the meaning given here. [ ]: non-standard residue; d: D form. The star is where a group is joined. Ttds = 1,13-diamino-4,7,10-trioxatridecan-succinamic acid, NCCCOCCOCCOCCCNC(=O)CCC(=O)*; APAc″ = 4-amino-1-carboxymethylpiperidine, NC1CCN(CC(=O)*)CC1; DOTA = O=C(O)CN1CCN(CC(=O)O)CCN(CC(=O)*)CCN(CC(=O)O)CC1; 2Lut = 2,6-lutidylidene bridge between two thiols; Trp(5-Cl) = N[C@@H](Cc1c[nH]c2ccc(Cl)cc12)C(=O)O; Pyridine(2,6-diCH2) = c1cc(C[*:1])nc(C[*:2])c1; APAc = 4-amino-1-carboxymethylpiperidine; MeO10kDaPEGAc = polydisperse 10 kDa PEG; Pro(4S-NH2) = N[C@@H]1CN[C@H](C(=O)O)C1; mXylylene = c1cc(C[*:1])cc(C[*:2])c1; Hyp = O=C(O)[C@@H]1C[C@@H](O)CN1; hArg = N=C(N)NCCCC[C@H](N)C(=O)O; Cysteamide = C(CS[*:3])N[*:1]; Suc = O=C(CCC(=O)[*:2])[*:1]; hLys = NCCCCC[C@H](N)C(=O)O; Api = NC1(C(=O)O)CCNCC1; Thp = NC1(C(=O)O)CCOCC1; Dap = NC[C@H](N)C(=O)O; Aib = CC(C)(N)C(=O)O

B1: Ac-Asp-Trp-5Clw-Hyp-Hly-leu-[Cys(2Lut)-Thp-Leu-Ile-Cys]-NH2 (peptide)
peptide: Ac-DW[Trp(5-Cl)][Hyp][hLys][dL]C[Thp]LIC-NH2
modifications: linker 7-11 via Pyridine(2,6-diCH2)
SMILES: CC[C@H](C)[C@@H]1NC(=O)[C@H](CC(C)C)NC(=O)C2(CCOCC2)NC(=O)[C@@H](NC(=O)[C@@H](CC(C)C)NC(=O)[C@H](CCCCCN)NC(=O)[C@@H]2C[C@@H](O)CN2C(=O)[C@H](Cc2c[nH]c3ccc(Cl)cc23)NC(=O)[C@H](Cc2c[nH]c3ccccc23)NC(=O)[C@H](CC(=O)O)NC(C)=O)CSCc2cccc(n2)CSC[C@@H](C(N)=O)NC1=O
B2: DOTA-APAc-Asp-Trp-5Clw-Hyp-Glu-leu-[Dap(2Lut)-Thp-Leu-Ile-AET] (peptide)
peptide: {DOTA-APAc″}-DW[Trp(5-Cl)][Hyp]E[dL][Dap][Thp]LI[Cysteamide]
modifications: linker (positions not given here) via Pyridine(2,6-diCH2); not fully specified (bridges); printed as DOTA-APAc-Asp-Trp-5Clw-Hyp-Glu-leu-[Dap(2Lut)-Thp-Leu-Ile-AET]
B3: Ac-Asp-Trp-5Clw-Hyp-Har-leu-[Cys(2Lut)-Thp-Leu-Ile-Cys]-NH2 (peptide)
peptide: Ac-DW[Trp(5-Cl)][Hyp][hArg][dL]C[Thp]LIC-NH2
modifications: linker 7-11 via Pyridine(2,6-diCH2)
SMILES: CC[C@H](C)[C@@H]1NC(=O)[C@H](CC(C)C)NC(=O)C2(CCOCC2)NC(=O)[C@@H](NC(=O)[C@@H](CC(C)C)NC(=O)[C@H](CCCCNC(=N)N)NC(=O)[C@@H]2C[C@@H](O)CN2C(=O)[C@H](Cc2c[nH]c3ccc(Cl)cc23)NC(=O)[C@H](Cc2c[nH]c3ccccc23)NC(=O)[C@H](CC(=O)O)NC(C)=O)CSCc2cccc(n2)CSC[C@@H](C(N)=O)NC1=O
B4: Ac-Asp-Trp-5Clw-Hyp-Lys-leu-[Cys(2Lut)-Thp-Leu-Ile-Cys]-NH2 (peptide)
peptide: Ac-DW[Trp(5-Cl)][Hyp]K[dL]C[Thp]LIC-NH2
modifications: linker 7-11 via Pyridine(2,6-diCH2)
SMILES: CC[C@H](C)[C@@H]1NC(=O)[C@H](CC(C)C)NC(=O)C2(CCOCC2)NC(=O)[C@@H](NC(=O)[C@@H](CC(C)C)NC(=O)[C@H](CCCCN)NC(=O)[C@@H]2C[C@@H](O)CN2C(=O)[C@H](Cc2c[nH]c3ccc(Cl)cc23)NC(=O)[C@H](Cc2c[nH]c3ccccc23)NC(=O)[C@H](CC(=O)O)NC(C)=O)CSCc2cccc(n2)CSC[C@@H](C(N)=O)NC1=O
B5: Ac-Asp-Trp-5Clw-Hyp-His-leu-[Cys(2Lut)-Thp-Leu-Ile-Cys]-NH2 (peptide)
peptide: Ac-DW[Trp(5-Cl)][Hyp]H[dL]C[Thp]LIC-NH2
modifications: linker 7-11 via Pyridine(2,6-diCH2)
SMILES: CC[C@H](C)[C@@H]1NC(=O)[C@H](CC(C)C)NC(=O)C2(CCOCC2)NC(=O)[C@@H](NC(=O)[C@@H](CC(C)C)NC(=O)[C@H](Cc2c[nH]cn2)NC(=O)[C@@H]2C[C@@H](O)CN2C(=O)[C@H](Cc2c[nH]c3ccc(Cl)cc23)NC(=O)[C@H](Cc2c[nH]c3ccccc23)NC(=O)[C@H](CC(=O)O)NC(C)=O)CSCc2cccc(n2)CSC[C@@H](C(N)=O)NC1=O

Target: biotinylated extracellular domain of the human GIP receptor (bioGIPR) (human) (UniProt P48546)
Sequence (P48546 24-138 limits assumed): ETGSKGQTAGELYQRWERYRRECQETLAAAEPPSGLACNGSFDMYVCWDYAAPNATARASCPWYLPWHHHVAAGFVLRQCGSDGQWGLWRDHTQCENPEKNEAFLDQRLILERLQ
Assay: SPR single cycle kinetics, bioGIPR captured on chip; category B: pKD 8.1-9.0

pKD | Molecule
8.1 to 9 pkd | {DOTA-Ttds}-DW[Trp(5-Cl)][Pro(4S-NH2)](Ac)E[dL]C[Aib]LI[Cysteamide] (linker 7-11 via mXylylene) [DOTA-Ttds-Asp-Trp-5Clw-4Ap(Ac)-Glu-leu-[Cys(3MeBn)-Aib-Leu-Ile-AET]]
8.1 to 9 pkd | B1
8.1 to 9 pkd | Ac-DW[Trp(5-Cl)][Hyp]R[dL]C[Thp]LIC-NH2 (linker 7-11 via Pyridine(2,6-diCH2)) [Ac-Asp-Trp-5Clw-Hyp-Arg-leu-[Cys(2Lut)-Thp-Leu-Ile-Cys]-NH2]
8.1 to 9 pkd | B2
8.1 to 9 pkd | Suc-W[Trp(5-Cl)][Hyp]E[dL]C[Api](MeO10kDaPEGAc)LIC-{APAc-Lys(DOTA)-NH2} (linker 6-10 via 2Lut) [HO-Succinyl-Trp-5Clw-Hyp-Glu-leu-[Cys(2Lut)-Apc(MeO10kDaPEGAc)-Leu-Ile-Cys]-APAc-Lys(DOTA)-NH2]
8.1 to 9 pkd | B3
8.1 to 9 pkd | B4
8.1 to 9 pkd | B5

Target: human Gastric Inhibitory Peptide Receptor (GIPR) (human) (UniProt P48546)
Sequence (P48546 22-466 limits assumed): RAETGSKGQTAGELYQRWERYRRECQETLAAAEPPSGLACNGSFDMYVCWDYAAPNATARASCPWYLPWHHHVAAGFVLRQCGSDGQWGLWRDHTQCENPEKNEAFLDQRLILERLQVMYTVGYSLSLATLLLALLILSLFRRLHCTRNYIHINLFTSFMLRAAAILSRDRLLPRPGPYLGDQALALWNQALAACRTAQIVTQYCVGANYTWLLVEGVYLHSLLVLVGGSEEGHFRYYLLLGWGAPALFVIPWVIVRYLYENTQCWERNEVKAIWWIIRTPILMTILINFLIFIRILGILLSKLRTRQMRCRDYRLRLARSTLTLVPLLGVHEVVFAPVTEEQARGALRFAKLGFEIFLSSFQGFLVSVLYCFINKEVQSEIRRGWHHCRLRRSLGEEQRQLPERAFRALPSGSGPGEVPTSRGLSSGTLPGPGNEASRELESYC
Assay: FACS competition vs biotinylated GIP-057 on CHO-K1-hGIPR cells; category C: pIC50 6.1-7.0

pIC50 | Molecule
6.1 to 7 pic50 | H-Met-Tyr-Asp-Trp-Trp-Pro-Glu-Leu-[Cys(2MeBn)-Ala-Leu-Ile-Cys]-NH2 (peptide)

Target: biotinylated extracellular domain of the human GIP receptor (bioGIPR) (human) (UniProt P48546)
Assay: SPR single cycle kinetics, bioGIPR captured on chip; category A: t1/2 >15 min

t1/2 | Molecule
> 15 min | {DOTA-Ttds}-DW[Trp(5-Cl)][Pro(4S-NH2)](Ac)E[dL]C[Aib]LI[Cysteamide] (linker 7-11 via mXylylene) [DOTA-Ttds-Asp-Trp-5Clw-4Ap(Ac)-Glu-leu-[Cys(3MeBn)-Aib-Leu-Ile-AET]]
> 15 min | B1
> 15 min | Ac-DW[Trp(5-Cl)][Hyp]R[dL]C[Thp]LIC-NH2 (linker 7-11 via Pyridine(2,6-diCH2)) [Ac-Asp-Trp-5Clw-Hyp-Arg-leu-[Cys(2Lut)-Thp-Leu-Ile-Cys]-NH2]
> 15 min | B2
> 15 min | Suc-W[Trp(5-Cl)][Hyp]E[dL]C[Api](MeO10kDaPEGAc)LIC-{APAc-Lys(DOTA)-NH2} (linker 6-10 via 2Lut) [HO-Succinyl-Trp-5Clw-Hyp-Glu-leu-[Cys(2Lut)-Apc(MeO10kDaPEGAc)-Leu-Ile-Cys]-APAc-Lys(DOTA)-NH2]
> 15 min | B3
> 15 min | B4
> 15 min | B5

Target: human Gastric Inhibitory Peptide Receptor (human) (UniProt P48546)
Sequence (P48546 22-466 limits assumed): as above
Assay: FACS competition with GIP-057 on CHO-K1-hGIPR cells; pIC50 category B: 7.1-8.0

pIC50 | Molecule
7.1 to 8 pic50 | Suc-W[Trp(5-Cl)][Hyp]E[dL]C[Api](MeO10kDaPEGAc)LIC-{APAc-Lys(DOTA)-NH2} (linker 6-10 via 2Lut) [HO-Succinyl-Trp-5Clw-Hyp-Glu-leu-[Cys(2Lut)-Apc(MeO10kDaPEGAc)-Leu-Ile-Cys]-APAc-Lys(DOTA)-NH2]

Target: human Gastric Inhibitory Peptide Receptor (human) (UniProt P48546)
Assay: FACS competition with GIP-057 on CHO-K1-hGIPR cells; pIC50 category A: >8.0

pIC50 | Molecule
> 8 pic50 | {DOTA-Ttds}-DW[Trp(5-Cl)][Pro(4S-NH2)](Ac)E[dL]C[Aib]LI[Cysteamide] (linker 7-11 via mXylylene) [DOTA-Ttds-Asp-Trp-5Clw-4Ap(Ac)-Glu-leu-[Cys(3MeBn)-Aib-Leu-Ile-AET]]
> 8 pic50 | B2

Target: human Gastric Inhibitory Peptide Receptor (GIPR) (human) (UniProt P48546)
Assay: FACS competition vs biotinylated GIP-057 on CHO-K1-hGIPR cells; category B: pIC50 7.1-8.0

pIC50 | Molecule
7.1 to 8 pic50 | B3

Target: human Gastric Inhibitory Peptide Receptor (GIPR) (human) (UniProt P48546)
Assay: FACS competition vs biotinylated GIP-057 on CHO-K1-hGIPR cells; category A: pIC50 >8.0

pIC50 | Molecule
> 8 pic50 | B1
> 8 pic50 | Ac-DW[Trp(5-Cl)][Hyp]R[dL]C[Thp]LIC-NH2 (linker 7-11 via Pyridine(2,6-diCH2)) [Ac-Asp-Trp-5Clw-Hyp-Arg-leu-[Cys(2Lut)-Thp-Leu-Ile-Cys]-NH2]
> 8 pic50 | B4
> 8 pic50 | B5
